Measurements as given in paper PMC4169746 (Molecular cell, 2014).
Positions count from the first letter of the chain named. Names may count otherwise. Blank lines part the entries; values can stand above or below the molecule they belong to.

Legend:
[1] = molecular target: dephosphorylated IRAK4^FL (human) (UniProt Q9NWZ3); experiment: SEC-MALS
[2] = molecular target: dephosphorylated IRAK4^KD (human) (UniProt Q9NWZ3); experiment: SEC-MALS
SEC-MALS = molecular target: the molecule itself; experiment: SEC-MALS
AUC = molecular target: the molecule itself; experiment: AUC

stoichiometry N [1]: 2
Molecule: dephosphorylated IRAK4^FL (from UniProt Q9NWZ3 1-460) (enzyme)

stoichiometry N [2]: 2
Molecule: dephosphorylated IRAK4^KD (from UniProt Q9NWZ3 186-454) (domain or fragment)

B1: IRAK4^KD-D311N (IRAK4 kinase domain, catalytically inactive, unphosphorylated) (domain or fragment, human, UniProt Q9NWZ3 164-460, looked up)
chain: RFHSFSFYELKNVTNNFDERPISVGGNKMGEGGFGVVYKGYVNNTTVAVKKLAAMVDITTEELKQQFDQEIKVMAKCQHENLVELLGFSSDGDDLCLVYVYMPNGSLLDRLSCLDGTPPLSWHMRCKIAQGAANGINFLHENHHIHRNIKSANILLDEAFTAKISDFGLARASEKFAQTVMTSRIVGTTAYMAPEALRGEITPKSDIYSFGVVLLEIITGLPAVDEHREPQLLLDIKEEIEDEEKTIEDYIDKKMNDADSTSVEAMYSVASQCLHEKKNKRPDIKKVQQLLQEMTAS
stoichiometry N (SEC-MALS): 2

B2: IRAK4^KD-D311N Y262T (domain or fragment, human, UniProt Q9NWZ3 164-460, looked up)
chain: B1 chain with Y99T
binding result (SEC-MALS): binds

B3: IRAK4^FL-D311N (full-length IRAK4, catalytically inactive, unphosphorylated) (enzyme, human, UniProt Q9NWZ3 1-460, looked up)
chain: MNKPITPSTYVRCLNVGLIRKLSDFIDPQEGWKKLAVAIKKPSGDDRYNQFHIRRFEALLQTGKSPTSELLFDWGTTNCTVGDLVDLLIQNEFFAPASLLLPDAVPKTANTLPSKEAITVQQKQMPFCDKDRTLMTPVQNLEQSYMPPDSSSPENKSLEVSDTRFHSFSFYELKNVTNNFDERPISVGGNKMGEGGFGVVYKGYVNNTTVAVKKLAAMVDITTEELKQQFDQEIKVMAKCQHENLVELLGFSSDGDDLCLVYVYMPNGSLLDRLSCLDGTPPLSWHMRCKIAQGAANGINFLHENHHIHRNIKSANILLDEAFTAKISDFGLARASEKFAQTVMTSRIVGTTAYMAPEALRGEITPKSDIYSFGVVLLEIITGLPAVDEHREPQLLLDIKEEIEDEEKTIEDYIDKKMNDADSTSVEAMYSVASQCLHEKKNKRPDIKKVQQLLQEMTAS
Kd (AUC): 2500 ± 400 nM
